The supplement of paper PMC10567573

B1: FAM189A2 (parent)
chain: CALNALTTTVCLVAAALRYLQIFA

Variants of: B1
Test: protein stability index of a GFP-peptide fusion (GPS, HEK-293T) (PSI 1-6); higher = more stable
Conditions: c terminus: a fixed tail appended
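Also: lentivirally expressed fusions sorted by FACS into six bins by GFP to DsRed ratio, PSI derived from sequencing read proportions per bin multiplied by bin number.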

Variant | protein stability index
CALNALTTTVCLVACALRYLQIFA | 2.71
CALNALTTTVCLVAIALRYLQIFA | 3.05
CALNALTTTVCLVAMALRYLQIFA | 3.68
CALNALTTTVCLVAFALRYLQIFA | 4.15
CALNALTTTVCLVAKALRYLQIFA | 2.76
CALNALTTTVCLVAYALRYLQIFA | 3.03
SALNALTTTVCLVAAALRYLQIFA | 3.48
LALNALTTTVCLVAAALRYLQIFA | 1.59
QALNALTTTVCLVAAALRYLQIFA | 3.13
VALNALTTTVCLVAAALRYLQIFA | 1.85
CALNALTTTVCLVAAALRYLWIFA | 2.74
CALNALTTTVCLVAAALRYLGIFA | 2.9
CALNALTTTVCLVAAALRYLFIFA | 2.15
CALNALTTTVCLVAAAYRYLQIFA | 2.25
CALNALTTTVCLVAAAFRYLQIFA | 3.04
CALNALTTTVCLVAAAIRYLQIFA | 4.04
CALNALTTTVCLVAAAARYLQIFA | 1.47
CALNALTTTVCLVAAAQRYLQIFA | 2.57
CALNALTTTVCLVAAAMRYLQIFA | 4.11
CALNALQTTVCLVAAALRYLQIFA | 3.37
CALNALCTTVCLVAAALRYLQIFA | 3.6
CALNALNTTVCLVAAALRYLQIFA | 3.42
CALNALTTTVCLVQAALRYLQIFA | 2.2
CALNALTTTVCLVFAALRYLQIFA | 3.14

Variant | protein stability index
CALNALTTTVCLVSAALRYLQIFA | 4.79
CALNALTTTVCLVRAALRYLQIFA | 2.23
CALNALTTTVCLVPAALRYLQIFA | 3.27
CANNALTTTVCLVAAALRYLQIFA | 2.3
CAENALTTTVCLVAAALRYLQIFA | 3.25
CAPNALTTTVCLVAAALRYLQIFA | 3.65
CALNANTTTVCLVAAALRYLQIFA | 3.48
CALNARTTTVCLVAAALRYLQIFA | 2.87
CALNAKTTTVCLVAAALRYLQIFA | 1.77
CALNALTTTVCLVAAALRYLQITA | 2.22
CALNALTTTVCLVAAALRYLQIIA | 3.76
CALNALTTTVCLVAAALRSLQIFA | 3.45
CYLNALTTTVCLVAAALRYLQIFA | 3.17
CQLNALTTTVCLVAAALRYLQIFA | 3.74
CPLNALTTTVCLVAAALRYLQIFA | 3.11
CRLNALTTTVCLVAAALRYLQIFA | 3.42
CALNMLTTTVCLVAAALRYLQIFA | 3.65
CALNKLTTTVCLVAAALRYLQIFA | 4.99
CALNLLTTTVCLVAAALRYLQIFA | 2.77
CALNNLTTTVCLVAAALRYLQIFA | 2.07
CALNRLTTTVCLVAAALRYLQIFA | 2.98
CALNALTTTVCEVAAALRYLQIFA | 1.51
CALNALTTTVCAVAAALRYLQIFA | 3.5
CALNALTTTVCNVAAALRYLQIFA | 4.01

Variant | protein stability index
CALNALTTTVCIVAAALRYLQIFA | 3.35
CALNALTTTVCYVAAALRYLQIFA | 3.88
CALNALTTTVCHVAAALRYLQIFA | 3.28
CALNALTLTVCLVAAALRYLQIFA | 1.99
CALNALTWTVCLVAAALRYLQIFA | 3.44
CALNALTTTVCLIAAALRYLQIFA | 2.9
CALNALTTTVCLPAAALRYLQIFA | 2.88
CALNALTTTVCLSAAALRYLQIFA | 2.06
CALNALTTTVCLNAAALRYLQIFA | 2.88
CALNALTTTVFLVAAALRYLQIFA | 3.1
CALNALTTTVNLVAAALRYLQIFA | 1.91
CALNALTTTVHLVAAALRYLQIFA | 1.63
CALNALTTTVQLVAAALRYLQIFA | 1.41
CALNALTTEVCLVAAALRYLQIFA | 2.63
CALNALTTIVCLVAAALRYLQIFA | 2.68
CALNALTTGVCLVAAALRYLQIFA | 4.16
CALNALTTPVCLVAAALRYLQIFA | 3.2
CALNALTTFVCLVAAALRYLQIFA | 2.07
CALNALTTTVCLVAAALYYLQIFA | 3.89
CALNALTTTVCLVAAALRYLQAFA | 1.99
CALNALTTTVCLVAAALRYLQEFA | 3.28
CALNALTTTVCLVAAALRYLQHFA | 2.75
CALNALTTTQCLVAAALRYLQIFA | 4.03
CALNALTTTTCLVAAALRYLQIFA | 2.65

Variant | protein stability index
CALNALTTTPCLVAAALRYLQIFA | 2.12
CALNALTTTLCLVAAALRYLQIFA | 3.21
CALNALTTTRCLVAAALRYLQIFA | 1.62
CALNALTTTICLVAAALRYLQIFA | 2.3
CALNALTTTKCLVAAALRYLQIFA | 2.08
CALNALTTTECLVAAALRYLQIFA | 3.04
CALGALTTTVCLVAAALRYLQIFA | 2.34
CALEALTTTVCLVAAALRYLQIFA | 2.1
CALWALTTTVCLVAAALRYLQIFA | 2.84
CALVALTTTVCLVAAALRYLQIFA | 3.46
CALFALTTTVCLVAAALRYLQIFA | 2.81
CALNALTTTVCLVAAILRYLQIFA | 4.22
CALNALTTTVCLVAAALRYLQIFL | 2.63
CALNALTTTVCLVAAALRYLQIFV | 3.43
CALNALTTTVCLVAAALRYLQIFD | 2.51
CALNALTTTVCLVAAALRYLQIFN | 1.88
CALNALTTTVCLVAAALRYLQIFF | 2.59
CALNALTTTVCLVAAALRYVQIFA | 1.72
CALNALTTTVCLVAAALRYKQIFA | 3.6
CALNALTTTVCLVAAALRYQQIFA | 3.06
CALNALTTTVCLVAAALRYNQIFA | 2.53
CALNALTTTVCLVAAALRYMQIFA | 3.29
